Legend:
[1] = tested on: coumarin-PPant labeled FITC-ybbR conjugate
[2] = tested on: crypto-A. orientalis CepK labeled with coumarin-PPant
[3] = tested on: crypto-A. parasiticus PksA carrier protein labeled with coumarin-PPant
[4] = tested on: crypto-E. coli AcpP (type II FAS acyl carrier protein labeled with coumarin-PPant)
[5] = tested on: crypto-FITC-ybbR (rhodamine WT PPant-labeled FITC-ybbR)
[6] = tested on: crypto-G. fujikuroi Pks4 carrier protein labeled with coumarin-PPant
[7] = tested on: crypto-L. majuscula JamC labeled with coumarin-PPant
[8] = tested on: crypto-L. majuscula JamF labeled with coumarin-PPant
[9] = tested on: crypto-M. tuberculosis AcpM (Type II) labeled with coumarin-PPant
[10] = tested on: crypto-MBP-PaAcpP (MBP fusion of P. aeruginosa AcpP labeled with coumarin-PPant)
[11] = tested on: crypto-P. agglomerans AdmA labeled with coumarin-PPant
[12] = tested on: crypto-P. agglomerans AdmI labeled with coumarin-PPant
[13] = tested on: crypto-P. falciparum apicoplast ACP (Type II) labeled with coumarin-PPant
[14] = tested on: crypto-P. fluorescens PltL labeled with coumarin-PPant
[15] = tested on: crypto-P. syringae SyrB1 labeled with coumarin-PPant
[16] = tested on: crypto-S. coelicolor ActACP labeled with coumarin-PPant
[17] = tested on: crypto-V. cholerae VibB labeled with coumarin-PPant
[18] = tested on: crypto-ybbR free peptide (coumarin-PPant labeled 11 amino acid ybbR)
[19] = tested on: crypto-ybbR-eGFP fusion with N-terminal 6xHis and C-terminal GFP (coumarin-PPant labeled)
[20] = tested on: crypto-ybbR-eGFP fusion with N-terminal GFP and C-terminal 6xHis (coumarin-PPant labeled)
[21] = tested on: holo-SoAcpP (S. oneidensis type II FAS AcpP)
[22] = tested on: crypto-GFP-ACP (rhodamine-PPT labeled fusion of E. coli ACP with GFP)
[23] = tested on: crypto-Lux-ACP (rhodamine-PPT labeled fusion of bacterial luciferase with E. coli ACP)
[24] = tested on: crypto-MBP-PaACP (rhodamine-PPT labeled MBP fusion of P. aeruginosa ACP)

Substance	AcpH activity with modified ybbR peptide [1]	AcpH qualitative CP activity [2]	AcpH qualitative CP activity [3]	AcpH qualitative CP activity [4]	AcpH qualitative CP activity [6]	AcpH qualitative CP activity [7]	AcpH qualitative CP activity [8]	AcpH qualitative CP activity [9]	AcpH qualitative CP activity [10]	AcpH qualitative CP activity [11]	AcpH qualitative CP activity [12]	AcpH qualitative CP activity [13]	AcpH qualitative CP activity [14]	AcpH qualitative CP activity [15]	AcpH qualitative CP activity [16]	AcpH qualitative CP activity [17]	AcpH activity with modified ybbR peptide [18]	AcpH activity with modified ybbR peptide [19]	AcpH activity with modified ybbR peptide [20]	AcpH qualitative CP activity [21]	also measured
acyl carrier protein hydrolase (AcpH) from Cyanothece PCC 7822	YES	no	YES	YES	no	YES	no	YES	YES	no	no	YES	no	no	no	no	YES	YES	YES	YES^†	Km [5]: 21 µM; Vmax [5]: 0.004 min⁻¹; kcat [5]: 0.004 min⁻¹; kcat/KM [5]: 0.0002 min⁻¹ µM⁻¹; Km (holo-E. coli AcpP): 58 µM; Vmax (holo-E. coli AcpP): 1.1 min⁻¹; kcat (holo-E. coli AcpP): 211 min⁻¹; kcat/KM (holo-E. coli AcpP): 3.6 min⁻¹ µM⁻¹
acyl carrier protein hydrolase (AcpH) from Pseudomonas aeruginosa PAO1	no	no	YES	YES	no	YES	no	YES	YES	no	no	YES	YES	no	no	no	no	no	no	YES^†	Km [5]: 177 µM; Vmax [5]: 0.008 min⁻¹; kcat [5]: 0.008 min⁻¹; kcat/KM [5]: 4.7e-05 min⁻¹ µM⁻¹; removal of rhodamine-PPT from ACP fusion protein [22]: AcpH removed rhodamine-PPT from ACP attached to three different fusion partners ... a C-terminal green fluorescent protein (GFP); removal of rhodamine-PPT from ACP fusion protein [23]: AcpH removed rhodamine-PPT from ACP attached to three different fusion partners ... an N-terminal bacterial luciferase fusion (Lux-ACP); removal of rhodamine-PPT from ACP fusion protein [24]: AcpH removed rhodamine-PPT from ACP attached to three different fusion partners, an N-terminal maltose binding protein (MBP); AcpH activity with NRPS-type peptidyl carrier proteins [14]: The observed partial activity resulted from PaAcpH with PltL; Km (holo-E. coli AcpP): 12 µM; Vmax (holo-E. coli AcpP): 0.59 min⁻¹; kcat (holo-E. coli AcpP): 0.59 min⁻¹; kcat/KM (holo-E. coli AcpP): 0.049 min⁻¹ µM⁻¹
acyl carrier protein hydrolase (AcpH) from Pseudomonas fluorescens NCIMB 10586	YES	no	YES	YES	YES	YES	no	YES	YES	no	YES	YES	no	no	YES	no	YES	YES	YES	YES^†	Km [5]: 48 µM; Vmax [5]: 0.17 min⁻¹; kcat [5]: 0.17 min⁻¹; kcat/KM [5]: 0.003 min⁻¹ µM⁻¹
annotated hypothetical AcpH homolog from Shewanella oneidensis MR-1	no	no	no	no	no	no	no	no	no	no	no	no	no	no	no	no	no	no	no	no	Vmax (holo-E. coli AcpP): NC†

From patent publication US20150253335
